Measured values as given in patent US20040170622A1, “Methods and compositions for modulating XBP-1 activity” (President and Fellows of Harvard College, priority 2002, published 2004).
Each block holds one molecule with its values, some of them ahead of it.

What was measured:
[1] = test system: IRE1α-mediated XBP-1 mRNA splicing; assay: XBP-1 mRNA level and splicing in J558 cells (Northern blot, RT-PCR); format: cell-based; details: J558, Tm 4 hrs; MG-132 10 μM, PS-341 10 μM, ZL3VS 50 μM, AdaAhxL3VS 50 μM
Procedure: (A) XBP-1 mRNA levels in ER stressed J558 cells treated with Tm for 4 hrs in the absence or presence of MG-132. Cells were pretreated with MG-132 for 1 hr before adding Tm. XBP-1 mRNA levels were determined by Northern blot analysis. […] (C) Effect of a panel of PIs on XBP-1 splicing. Cells were treated with Tm for 4 hrs in the absence or presence of MG-132 (10 μM), PS-341 (10 μM), Lactacystin (10 μM), ZL3VS (50 μM) or AdaAhxL3VS (50 μM), and XBP-1 mRNA splicing measured by RT-PCR analysis. (D) IRE-1α phosphorylation in NIH3T3 cells were treated with Tm as indicated after 2 hrs of pretreatment with MG-132 (10 μM).
Total RNA was prepared by using Trizol reagent, electrophoresed on 1.2% agarose, 6% formaldehyde gels and then transferred onto Genescreen Plus membrane, (NEN, Boston, Mass.). […] Probes for ERdj4 and p58^IPK were generated from cDNA excised from EST clones (ATCC, Manassas, Va.) using appropriate restriction enzymes (ERdj4, IMAGE: 1920927; p58^IPK, IMAGE:2646147).

[2] = test system: XBP-1 mRNA; assay: XBP-1 mRNA induction by cytokines in purified splenic B cells (Northern blot); format: cell-based, mouse; details: 20 μg/ml cycloheximide added 30 min before IL-4, 4 hours
Procedure: (§1) Mouse splenocytes or purified B cells (purified mature B cells were isolated from spleen and lymph nodes by magnetic CD43 depletion or B220 magnetic bead selection, Miltenyi Biotech, Auburn Calif.) were plated at 1×10^6 cells/ml in complete media containing RPMI 1640 supplemented with 10% fetal calf serum (FBS)(Hyclone Laboratories), glutamine (2 mM), penicillin (50 units/ml), streptomycin (50 μg/ml), Hepes (100 mM), nonessential amino acids (1×) sodium pyruvate (1 mM) and β-ME (50 μM) and stimulated with anti-CD40(1 μg/ml)(Pharmigen) or LPS (20 μg/ml)(Sigma). Cytokines (R&D Systems, Minneapolis, Minn.) were used at IL-4 (20 ng/ml), IL-2 (20 ng/ml), Il-5 (20 ng/ml), IL-6 (20 ng/ml ), IL-10 (20 ng/ml ) and IL-13 (20 ng/ml). Stimulated B cells were split to a cell concentration of 1×10^6 cells/ml with fresh media every 24 h. The BCL1 (CWS13.20-3B3 ATCC CRL 1699) cell line was cultured in RPMI media supplemented with 10% FBS, gentamicin (20 μg/ml), and β-ME (50 μM). To induce differentiation cells were plated at 2×10^5 cells/ml and treated with recombinant mouse IL-2 and IL-5 (20 ng/ml) (R&D systems).
Total RNA was isolated using TriZo1 (Gibco-BRL) or Qiashedder/Rneasy RNA purification columns (Quiagen). Northern Blots were performed as described (Rengarajan et al., 2000 Immunity. 12:293-300). Briefly, 7-10 μg RNA were electrophoresed on 1.2% agarose, 6% formaldehyde gels transferred onto Genescreen membrane (NEN) and covalently bound to the membrane using UV Stratalinker (Stratagene). The following probes were used after ^32P-radiolabeling with the ReadyPrime labeling system (Amersham-Pharmacia): XBP-1 (15-830 of the murine coding region), GRP94 and GRP78 (both a kind gift of R. J. Kaufman Univ. of Michigan (Lee et al., 2002)), Blimp (Nco1-Sca1 fragment), c-myc cDNA and Il-6 cDNA . […]
Since XBP-1 is required for terminal B cell differentiation, it was important to identify the stimuli that regulate XBP-1 gene expression. A plethora of cytokines (IL-2, IL-4, IL-5, IL-6, IL-10, IL-13) has been implicated in plasma cell differentiation both in vitro and in vivo (reviewed in Calame, K. L. (2001 Nat. Inimunol. 2: 1103-1108; Liu, Y. J., and Banchereau, J. (1997). Sem Immunol 9: 235; Zubler, 1997Sem. Hematol 34:13). It was possible that these cytokines effected terminal B cell differentiation by modulating XBP-1 gene expression. Thus, the ability of these cytokines to upregulate XBP-1 mRNA transcripts in B cells was tested. Purified splenic B cells were cultured for 24 h in the presence or absence of various cytokines and XBP-1 expression determined by Northern blot analysis. […] XBP-1 mRNA levels were determined by Northern blot analysis with γ-actin as control. […] XBP-1 mRNA levels were determined as above. […]

[3] = target: XBP-1s (spliced form of murine XBP-1 protein, 371 aa) (mouse) (UniProt O35426); assay: cell-based or functional assay
[4] = test system: BCL-1 cells; assay: IgM secretion by retrovirally transduced BCL-1 cells (ELISA); format: cell-based
Procedure: as §1
(§2) Assays to measure immunoglobulin or cytokine levels in culture supernatants were performed as described (e.g., Hodge et al., 1996 Immunity. 4:397-405 or Science. 1996 274:1903-5).
The XBP-1 cDNAs for the unspliced (XBP-1u/s) and the spliced (XBP-1s) forms were PCR-amplified from the total RNA of untreated and tunicamycin treated NIH3T3 cells, respectively, with a primer set (5′-[…]-3′ (SEQ ID NO: 7) and 5′-[…]-3′) (SEQ ID NO: 8). XBP-1u form was generated by a PCR-based mutagenesis from XBP-unspliced/s cDNA so that the two G residues at position 532 and 535 were changed to A without changing amino acid sequences in the XBP-1u open reading frame. Numbers are based on the sequences from gene bank database (NM_013842 [gi:13775155]). These XBP-1 cDNAs were inserted into the GFP-RV retroviral vector by using blunt end ligation (Sambrook et al., 1989). EFFECTENE transfection (Quiagen) was used to introduce the DNA into the Phoenix cell line as described by manufacturer (e.g., Reimold et al., 2001 Nature. 412:300-7 or Int Immunol. 2001 13:241-8). Viral supernatants were harvested after 48 hours and frozen at −80° C. for later use. B cells were purified from mouse spleens using CD43 depletion or positive selection with B220+ magnetic beads as described by the manufacturer (MidiMacs, Miltenyi Biotech). B cell purity was generally near 95% as confirmed by flow cytometry. The B cells (10^6 cells /ml) were then activated in culture with LPS 10 μg/ml and F (ab′)2 anti-IgM (5 μg/ml Southern Biotechnology Associates Inc.) for 24 hours. […]

[5] = test system: XBP-1^−/− B cells; assay: Ig production by retrovirally transduced XBP-1-/- primary B cells (ELISA); format: cell-based, mouse; details: LPS 10 μg/ml 72 h
Procedure: as §2
(§3) The XBP-1 cDNAs for the unspliced (XBP-1u/s) and the spliced (XBP-1s) forms were PCR-amplified from the total RNA of untreated and tunicamycin treated NIH3T3 cells, respectively, with a primer set (5′-[…]-3′ (SEQ ID NO: 7) and 5′-[…]-3′) (SEQ ID NO: 8). XBP-1u form was generated by a PCR-based mutagenesis from XBP-unspliced/s cDNA so that the two G residues at position 532 and 535 were changed to A without changing amino acid sequences in the XBP-1u open reading frame. Numbers are based on the sequences from gene bank database (NM_013842 [gi:13775155]). These XBP-1 cDNAs were inserted into the GFP-RV retroviral vector by using blunt end ligation (Sambrook et al., 1989). EFFECTENE transfection (Quiagen) was used to introduce the DNA into the Phoenix cell line as described by manufacturer (e.g., Reimold et al., 2001 Nature. 412:300-7 or Int Immunol. 2001 13:241-8). Viral supernatants were harvested after 48 hours and frozen at −80° C. for later use. B cells were purified from mouse spleens using CD43 depletion or positive selection with B220+ magnetic beads as described by the manufacturer (MidiMacs, Miltenyi Biotech). B cell purity was generally near 95% as confirmed by flow cytometry. The B cells (10^6 cells /ml) were then activated in culture with LPS 10 μg/ml and F (ab′)2 anti-IgM (5 μg/ml Southern Biotechnology Associates Inc.) for 24 hours. The 1 ml of activated B cells (10^6 cells/ml) were mixed with 4 μg of polybrene and 1 ml of virus-containing supernatant and spun at 1000 g for 45 minutes at 24° C. Cells were incubated for 24-36 h at 37° C. and then GFP+ cells were flow sorted and returned to culture with and without stimulation.
The effects of these three different forms of XBP-1 on Ig secretion were compared in wild type and XBP-1^−/− B cells. In vitro activated splenic B cells were transduced using retroviruses expressing bicistronic mRNA encoding XBP-1u/s, XBP-1s, XBP-1u or control GFP. In FIGS. 5(A) and (B) purified B cells from wt and XBP-1^−/− mice were activated in culture with LPS 10 μg/ml and F (ab′)2 anti-IgM (5 μg/ml) for 24 hours. Retroviral transduction with GFP alone (GFP-Rv), XBP-1u/s (XBP-1u/s GFP Rv), XBP-1s (XBP-1s GFP Rv) or XBP-1u (XBP-1u GFP Rv) of activated B cells was performed. Cells were incubated for 24-36 h at 37° C. and then GFP+ cells were flow sorted and then returned to culture with LPS stimulation (10 μg/ml) for 72 h. IgM panel(A) and IgG2b panel (B) production analyzed by ELISA from culture supernatants of stimulated B cells. Experiments were done at least three times and standard deviation is shown.

[6] = test system: IL-6; assay: IL-6 production by retrovirally transduced wt and XBP-1-/- B cells (ELISA, Northern blot); format: cell-based, murine; details: LPS 72 h
Procedure: as §2, §3
In human multiple myeloma cells, XBP-1 was induced by IL-6 treatment and implicated in the proliferation of malignant plasma cells (Wen et al., 1999). However, no role for IL-6 in upregulating XBP-1 transcripts or in mediating splicing of XBP-1 RNA in mature B cells has been described (FIG. 6A). The ability of XBP-1 to induce IL-6 production in wt and XBP-1^−/− primary B cells was tested. As described above, in vitro activated murine splenic B cells were transduced using retroviruses expressing bicistronic mRNA for XBP-1u/s, XBP-1s, XBP-1u and control GFP. After cell sorting, GFP^+ cells were stimulated with LPS and assayed for cytokine production after 72 h. In FIG. 6 panel (A) purified B cells from wt and XBP-1^−/− mice were activated in culture with LPS 10 μg/ml and F(ab′)2 anti-IgM (5 μg/ml ) for 24 hours. Retroviral transduction with GFP alone (GFP-Rv), XBP-1u/s (XBP-1 u/s GFP Rv), XBP-1s (XBP-1s GFP Rv) or XBP-1u (XBP-1u GFP Rv) of activated B cells was performed. Cells were incubated for 24-36 h at 37° C. and then GFP+ cells were flow sorted and then returned to culture with LPS stimulation (10 μg/ml) for 72 h. Cytokine production was analyzed by ELISA from culture supernatants of stimulated B cells. Experiments were done at least three times and standard deviation is shown. In panel (B) Total RNAs were prepared from stimulated B cells above and XBP-1 mRNA levels were determined by Northern blot analysis with γ-actin control

Molecule: CC(C)C[C@@H](/C=C/S(C)(=O)=O)NC(=O)[C@H](CC(C)C)NC(=O)[C@H](CC(C)C)NC(=O)CCCCCNC(=O)CCCCCNC(=O)CCCCCNC(=O)CC12CC3CC(CC(C3)C1)C2 [AdaAhx3L3VS]
effect on Tm-induced XBP-1 mRNA splicing [1]: suppressed XBP-1 mRNA splicing as efficiently as MG-132

Molecule: CC(C)C[C@@H](/C=C/S(C)(=O)=O)NC(=O)[C@H](CC(C)C)NC(=O)[C@H](CC(C)C)NC(=O)OCc1ccccc1 [ZL3VS]
effect on Tm-induced XBP-1 mRNA splicing [1]: suppressed XBP-1 mRNA splicing as efficiently as MG-132

Molecule: C[C@@H]1C[C@@H]([C@H](O)CC2CC(=O)NC(=O)C2)C(=O)[C@@H](C)C1 [cycloheximide, reference compound]
effect on IL-4-induced upregulation of XBP-1 mRNA [2]: did not affect the upregulation of XBP-1 mRNA in response to IL-4

fold induction of luciferase, XBP-luciferase reporter in NIH3T3 cells, 5 uM MG-132, with unspliced XBP-1 (fold induction) [3]: 5.8
fold induction of luciferase, XBP-luciferase reporter in NIH3T3 cells, 5 uM MG-132, without unspliced XBP-1 (fold induction) [3]: 41.9
Molecule: XBP-1u (unspliced form of murine XBP-1 protein, 267 aa) (from UniProt O35426 1-267)

relative luciferase activity in NIH 3T3 cells (44.5 with 200 ng of spliced XBP-1 alone) (relative luciferase activity) [3]: 2.2
Molecule: XBP-N136 (N terminal 136 amino acids of the spliced form of XBP-1) (from UniProt O35426 1-136)

B1: XBP-1u/s: vector expressing XBP-1 mRNA giving the unspliced form and, upon IRE-dependent splicing, the spliced form (protein, UniProt O35426 1-267, looked up)
X-box-binding protein 1: MVVVAAAPSAATAAPKVLLLSGQPASGGRALPLMVPGPRAAGSEASGTPQARKRQRLTHLSPEEKALRRKLKNRVAAQTARDRKKARMSELEQQVVDLEEENHKLQLENQLLREKTHGLVVENQELRTRLGMDTLDPDEVPEVEAKGSGVRLVAGSAESAALRLCAPLQQVQAQLSPPQNIFPWTLTLLPLQILSLISFWAFWTSWTLSCFSNVLPQSLLVWRNSQRSTQKDLVPYQPPFLCQWGPHQPSWKPLMNSFVLTMYTPSL
modifications: GFP retroviral vector
notes: vector expressing XBP-1 mRNA giving the unspliced form and, upon IRE-dependent splicing, the spliced form
IgM secretion compared to vector alone controls ([4]; GFP positive BCL-1 cells treated with IL-2 and IL-5 for 3 days): approximately threefold
Ig secretion ([4]; GFP positive BCL-1 cells untreated with cytokine): neither XBP-1u/s nor XBP-1s forms were able to induce Ig secretion
secretion of IgM compared to control cells [5]: approximately ten-fold
IL-6 secretion over control [6]: approximately 2 fold
